{"source": "paper PMC9266650", "binders": {"B1": {"name": "Actin-depolymerizing factor, P60981 1-165 (natural protein)", "chain": "MASGVQVADEVCRIFYDMKVRKCSTPEEIKKRKKAVIFCLSADKKCIIVEEGKEILVGDVGVTITDPFKHFVGMLPEKDCRYALYDASFETKESRKEELMFFLWAPELAPLKSKMIYASSKDAIKKKFQGIKHECQANGPEDLNRACIAEKLGGSLIVAFEGCPV"}}, "molecular_target": "T148-ADP-ribosylated-actin (100% TccC3-ADP-ribosylated actin) (not stated (purified from rabbit or chicken skeletal muscle)), P68135", "settings": "remark: other sources report otherwise"}
{"binder": "B1", "values": [{"measurement": "other", "value": 15, "unit": "fold"}]}
